Data: patent US20040072750A1, “Compounds and methods for the modulation of CD154” (priority 2001, published 2004)
“Also recorded” adds a separate entry of the source.

Assays:
platelets [1] = experiment: Release of sCD154 from stimulated platelets in platelet-rich plasma (ELISA); assay type: cell-based, human; conditions: for Inhibition of sCD154 Release at >90% Platelet Aggregation Inhibition, % / Potentiation of sCD154 Release, %: TRAP-stimulated platelets, average and SD; for Inhibition of sCD154 Release at >90% Platelet Aggregation Inhibition, %: release without GP IIb-IIIa inhibitor set at 100%; for Potentiation of sCD154 Release, %: maximal potentiation, release without inhibitor set at 100%
Procedure: Platelet-rich plasma (PRP) was prepared from human donors by obtaining blood through a 19-gauge butterfly into PPACK anticoagulant (8.6 ml of 2.1 mM PPACK, Calbiochem, La Jolla, Calif.: final concentration 0.3 mM). Blood was aliquoted into 15 ml polypropylene tubes and centrifuged at 900 rpm for 20 minutes (160×g). The platelet rich plasma (PRP) was carefully removed and pooled in a new tube. Platelet counts were taken and recorded. Aliquots of PRP at 37° C. were then added to 1.5 ml microcentrifuge tubes containing various amounts of eptifibatide. To initiate aggregation, 20 μM ADP 4 μg/mL collagen or 5 μM TRAP6 was added and samples were rocked on a Nutator for 30 minutes at 37° C. The tubes were put on ice and immediately centrifuged at 15,000×g for 10 minutes at 4° C.
The platelet-poor plasma (PPP) supernatant was removed to new tubes and the levels of sCD154 in these samples were measured by ELISA. There was a time-dependent increase in sCD154 release when platelets were aggregated with either ADP or TRAP6.
(§1) In other experiments, various concentrations of eptifibatide, abciximab or tirofiban were added to PRP before the addition of TRAP. In the eptifibatide experiments, the release of βTG from platelet a granules was determined from PPP samples by ELISA. Inhibition of aggregation by GP IIb-IIIa antagonists was determined in PPACK-anticoagulated PRP by light-transmission aggregometry (Chrono-Log) as described in Phillips et al. (1995) J Exp. Med 182:33-40. To assess the effect of aspirin use on the release of sCD154 from platelets, PRP was obtained from 7 donors, incubated with a single concentration of GP IIb-IIIa inhibitor, and stimulated with 20 μmol/L ADP, 5 μmol/L TRAP or 4 μg/mL collagen for 30 minutes while rocking at 37° C. Resultant PPP was measured for sCD154. The same donors then took 325 mg of aspirin for 7 days. PRP was again collected and subjected to the same conditions, and the release of sCD154 was determined. A control reading (no addition of inhibitor) was taken with the agonist 0.5 mmol/L arachidonic acid in citrated PRP to ensure that the aspirin had been taken.

platelets [2] = experiment: Platelet aggregation in PRP by light-transmission aggregometry; assay type: cell-based, human; conditions: before and after 7 days of aspirin
Procedure: as §1

platelets [3] = experiment: Platelet function (Accumetrics RPFA) in patients undergoing PCI; assay type: in vivo, human; conditions: 10 minutes post final bolus
Procedure: (§2) Patients (n=45) undergoing PCI were enrolled. The study was approved by the IRB and all patients signed informed consent. Exclusion criteria included higher risk clinical scenarios mandating, according to institutional clinical practice, the use of GP IIb/IIIa antagonists (i.e., acute ST elevation MI or non q-wave MI with CPK elevation, pain at rest with EKG changes <24 hours, visible thrombus, pain refractory to heparin), pre-procedural GP IIb/IIIa inhibitor treatment, restenotic and graft lesions, and standard conditions excluding GP IIb/IIIa inhibitor use.
(§3) All patients received aspirin and intravenous heparin (50-70U/kg) monitored by activated clotting time (ACT) during the procedure. Patients were administered either no GP IIb/IIIa inhibitor, eptifibatide (180 μg/kg double bolus followed by 2 μg/kg/min for 16 h), or abciximab (0.25 mg/kg bolus intravenously followed by 0.125 μg/kg/min for 12 h) at the discretion of the primary operator. Platelet function was monitored using PPACK-anticoagulated blood and the Accumetrics RPFA device at baseline and 10 min post-final bolus. Interventionalists were blinded to RPFA results and not permitted to modify GP IIb-IIIa inhibitor dosing. Post-PCI, patients received clopidogrel (300 mg PO) followed by 75 mg daily.

[4] = Plasma inflammatory markers after PCI (ELISA); assay type: in vivo, human
Procedure: as §2, §3
Venous blood samples were collected prior to (t=0) and at 30 minutes, 2 hours, and 24 hours after the angioplasty wire was advanced across the lesion. Blood was collected into 10 mL tubes with either EDTA (for sCD 154 analysis) or PPACK (for all other analyses) anticoagulant, centrifuged at 4° C., and stored at −80° C. until analysis.
Inflammatory markers in plasma samples were quantified by commercially available ELISA for sCD154 (Alexis BioChemical) with modification (12), RANTES, IL6, sICAM-1 (BioSource), and CRP (Alpha Diagnostic International).
Primary endpoint data are presented as mean±SE. Data were log transformed to achieve a normal distribution verified by Kolmogorov-Smirnov test for normality. Statistical comparisons were performed using two-way ANOVA to determine a difference in mean values over time between the 3 groups. Pair-wise comparisons were performed when the ANOVA false-positive rate was ≦5%. A Bonferroni corrective for 3 pair-wise comparisons was applied, in which the p-value of […] was used to signify a false-positive rate of 5%. For ANOVA with a false-positive rate of ≧5%, the pair-wise comparisons were reported to be statistically nonsignificant (NS). Baseline and procedural characteristics data were analyzed with standard one way ANOVA for continuous data in more than 3 groups and a student's t-test for comparison of 2 groups. A Mann-Whitney Rank Sum test was used for nominal data. Statistical significance was assumed if the false positive rate was ≦5%.

washed platelets = experiment: Fibrinogen binding to washed platelets and microparticle generation (flow cytometry); assay type: cell-based, human; conditions: 2 μM protein, 60 minutes at 37° C.; FIG. 10
Procedure: Venous blood was collected from normal donors into ACD buffer (85 mM Sodium Citrate, […] and 71 mM Citric acid) containing 0.05 μg/ml prostaglandin 12(PGI2). Blood was later centrifuged at 160×g for 20 minutes to collect platelet rich plasma (PRP). PRP was centrifuged at 1100×g for 10 minutes to sediment platelets. Platelets were washed twice with CGS buffer (13 mM trisodium citrate, 120 mM sodium chloride and 30 mM dextrose pH 7.0). The first wash had 0.03 μg/ml PGI2. Washed platelets were finally suspended in Tyrodes-Hepes buffer (12 mM sodium bi-carbonate, 138 mM sodium chloride, 5.5 mM glucose, 2.9 mM potassium chloride, 10 mM Hepes, 1 mM calcium chloride and 1 mM magnesium chloride, pH 7.4).
Washed platelets (1×10^7/ml) were incubated for 60 minutes at 37° C. with 2 μM soluble CD154 (sCD154) or mutant sCD154 (D117E mutation in the KGD sequence) in the presence or absence of eptifibatide or anti-CD40 antibody. All incubations had 100 nM Alexa-Fibrinogen (Molecular probes, Eugene, Oreg.). Samples were diluted 10 fold with stain buffer (BD Pharmingen, Los Angeles, Calif.) after incubation and analyzed by flow cytometry (FACSort, BD, San Jose, Calif.).

platelets in whole blood = experiment: Perfusion chamber: thrombus formation of whole blood on protein-coated surface under shear; assay type: cell-based, human; conditions: with or without Fg
Procedure: The effect of CD154 on the aggregation of platelets under conditions of high shear stress were evaluated. Recombinant CD154 (rCD154 or rCD40L) was compared to fibrinogen (Fg) in its ability to form thrombi as well as in combination with Fg. Controls also included CD154 in which the KGD eptifibatide-recognition sequence was mutated to KGE (CD154(KGE) or CD40L(KGE)). Briefly, a silicone gasket with a flow path height of 127 μm was placed between a flat perfusion chamber (Glycotech, Rockville, Md.) and a protein-coated petri dish as described (Andre, P. et al., Nature Medicine, 8:247-252 (2002)). Petri dishes were coated with rCD40L, Fibrinogen (Fg), rCD40L+Fg, mutated CD40L (CD40L(KGE)), CD40L(KGE)+Fg. In one experiment, the glycoprotein IIb/IIIa antagonist eptifibatide (2 μM) was incubated with whole blood before perfusion over the rCD40L-coated surface. When Fg was coated with either rCD40L or CD40L(KGE), each molecule was deposited at 25 μg/cm^2. Coating of the proteins was performed using the spray method in which 25 μl of a 1 mg/ml protein solution is coated onto the plastic with a retouching air brush resulting in a concentration of 25 μg/cm^2 (Houdijk, WP et al., J. Clin. Invest., 75:531-540 (1985)). Human peripheral blood was collected on PPACK (40 μmol/L final concentration) and perfused for 4 minutes over the protein-coated surface. Shear rates of 1500-1600/s, 500-600/s and 100-200/s, were generated with flow rates of ˜0.6, 0.25 and 0.075 ml/min, respectively. Measurements of thrombotic deposits were performed using the Simple PCI software image analysis program (Technical Instrument, Burlingame, Calif.).

CC(=O)Oc1ccccc1C(=O)O [aspirin]
release of sCD154 from platelets stimulated with ADP or TRAP (platelets [1]; after aspirin use): unaffected; also recorded: does not block
release of CD154 from platelets activated by collagen (platelets [1]; aspirin, in words): blocks
decrease in the release of sCD154 from collagen-induced platelet aggregates (platelets [1]; donors took 325 mg aspirin for 7 days, collagen 4 μg/mL): 50%
platelet aggregation in response to optimal doses of platelet agonists (platelets [2]): no effect

CCCCS(=O)(=O)N[C@@H](Cc1ccc(OCCCCC2CCNCC2)cc1)C(=O)O [tirofiban]
Inhibition of sCD154 Release at >90% Platelet Aggregation Inhibition, % (platelets [1]): 80 ± 5.3%
Potentiation of sCD154 Release, % (platelets [1]): 19 ± 7.7%

B1: abciximab (antibody, chains of the INN, looked up, V domains shown)
VH: EVQLQQSGTVLARPGASVKMSCEASGYTFTNYWMHWVKQRPGQGLEWIGAIYPGNSDTSYIQKFKGKAKLTAVTSTTSVYMELSSLTNEDSAVYYCTLYDGYYVFAYWGQGTLVTVSA
VL: EIVLTQSPVTLSVTPGDSVSLSCRASRDISNNLHWFQQTSHESPRLLIKYASQSMSGIPSRFSGSGSGTDFTLSINSVETEDFGMYFCQQTNSWPYTFGGGTKLEIK
modifications: Fab
notes: parenteral GP IIb-IIIa antagonist
Inhibition of sCD154 Release at >90% Platelet Aggregation Inhibition, % (platelets [1]): 57 ± 8.2%
Potentiation of sCD154 Release, % (platelets [1]): 19 ± 7.5%
Platelet inhibition (% inhibition) (platelets [3]): 93±4%
CRP levels after PCI ([4]; 2-24 hours after PCI, not statistically significant): lowest levels
plasma RANTES levels after PCI ([4]; versus baseline): not observed

B2: CD40L(KGE): CD154 in which the KGD eptifibatide-recognition sequence was mutated to KGE (D117E) (protein, UniProt P29965 113-261, looked up, variant D117E)
CD40 ligand, soluble form: MQKGEQNPQIAAHVISEASSKTTSVLQWAEKGYYTMSNNLVTLENGKQLTVKRQGLYYIYAQVTFCSNREASSQAPFIASLCLKSPGRFERILLRAANTHSSAKPCGQQSIHLGGVFELQPGASVFVNVTDPSQVSHGTGFTSFGLLKL
fibrinogen binding to platelets and generation of microparticles (washed platelets): did not stimulate
aggregate formation on coated surface (platelets in whole blood): does not induce
